From paper PMC7261414, “A complex comprising C15ORF41 and Codanin-1: the products of two genes mutated in congenital dyserythropoietic anaemia type I (CDA-I)” (Biochemical Journal, 2020)

Target: T1, Codanin-1-C (fragment of Codanin-1, amino acids P800-S1227) (human, UniProt Q8IWY9 800-1227)
T1 construct: Codanin-1, amino acids P800-S1227; Plasmid pET28a 6His z-basic TEV CDAN1^P800-S1227; the text speaks only of the hexahistidine tag being cleaved with TEV; that z-basic goes with it follows from the order in the plasmid's name; also called CDAN1^P800-S1227; source: E. coli, purified (Ni2+-NTA agarose, tag cleaved with His-TEV protease); not shown: His6, N-terminal, cleaved; z-basic, N-terminal, …
T1 sequence (looked up): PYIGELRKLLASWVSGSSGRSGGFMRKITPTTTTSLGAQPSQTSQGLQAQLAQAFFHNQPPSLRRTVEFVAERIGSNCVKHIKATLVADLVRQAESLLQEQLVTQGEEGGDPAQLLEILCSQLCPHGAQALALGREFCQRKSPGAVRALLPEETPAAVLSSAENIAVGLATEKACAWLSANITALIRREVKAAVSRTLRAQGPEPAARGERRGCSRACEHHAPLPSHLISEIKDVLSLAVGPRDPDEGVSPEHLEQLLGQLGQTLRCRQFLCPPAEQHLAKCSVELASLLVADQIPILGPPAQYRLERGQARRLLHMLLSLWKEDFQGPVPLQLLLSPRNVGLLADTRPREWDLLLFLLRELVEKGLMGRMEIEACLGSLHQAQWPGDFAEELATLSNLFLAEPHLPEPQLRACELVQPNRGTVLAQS
Test: pull-down + SEC; purified His6-C15ORF41 re-bound to Ni2+-NTA agarose, excess of purified Codanin-1-C passed over, eluted with 400 mM imidazole, Superdex 200 16/60 in 50 mM Tris pH 7.5, 500 mM NaCl, 5% glycerol, 0.5 mM TCEP
Details: both partners purified

binding result: binds
B1: His6-C15ORF41 bearing the solubilising mutations V18M, C223S and W237R (natural protein, human, UniProt Q9Y2V0 1-281, looked up)
chain: MILTKAQYDEIAQCLVSMPPTRQSLRKLKQRFPSQSQATLLSIFSQEYQKHIKRTHAKHHTSEAIESYYQRYLNGVVKNGAAPVLLDLANEVDYAPSLMARLILERFLQEHEETPPSKSIINSMLRDPSQIPDGVLANQVYQCIVNDCCYGPLVDCIKHAIGHEHEVLLRDLLLEKNLSFLDEDQLRAKGYDKTPDFILQVPVAVEGHIIHWIESKASFGDESSHHAYLHDQFWSYRNRFGPGLVIYWYGFIQELDCNRERGILLKACFPTNIVTLCHSIA
notes: C15ORF41 (CDIN1) with the extra mutations V18M, C223S and W237R; Plasmid pNIC28 Bsa4 6His Tev C15ORF41^(V18M C223S W237R), a gift from J. Newman (SGC Oxford); preparations held bacterial ArnA as a contaminant; also called C15ORF41^(V18M C223S W237R); source: E. coli, purified (Ni2+-NTA agarose, dialysis); not shown: His6, N-terminal, kept
